Measurements: patent US7727960B2, “C5a receptor antagonists” (Jerini AG, priority 2003, dated 2010)
Like-named read-outs stand apart in the source and are kept apart here. Positions of bridges follow the written chain, without caps; N, C: chain ends. Non-standard residues stand in square brackets, D forms with d. Residues, ends and D or L forms follow the SMILES beside them. No end group written: not given here. Phe(4-NH2) = Nc1ccc(C[C@H](N)C(=O)O)cc1; Hyp = O=C(O)[C@@H]1C[C@@H](O)CN1; Cha = N[C@@H](CC1CCCCC1)C(=O)O; dCha = N[C@H](CC1CCCCC1)C(=O)O; AllylGly = C=CC[C@H](N)C(=O)O; Nle = CCCC[C@H](N)C(=O)O; Orn = NCCC[C@H](N)C(=O)O

T1: human C5aR (CD88) (Homo sapiens, UniProt P21730)
T1 construct: expressed in transfected cells; host or cells: rat basophilic leukemia cells (RBL)
T1 sequence (P21730 1-350): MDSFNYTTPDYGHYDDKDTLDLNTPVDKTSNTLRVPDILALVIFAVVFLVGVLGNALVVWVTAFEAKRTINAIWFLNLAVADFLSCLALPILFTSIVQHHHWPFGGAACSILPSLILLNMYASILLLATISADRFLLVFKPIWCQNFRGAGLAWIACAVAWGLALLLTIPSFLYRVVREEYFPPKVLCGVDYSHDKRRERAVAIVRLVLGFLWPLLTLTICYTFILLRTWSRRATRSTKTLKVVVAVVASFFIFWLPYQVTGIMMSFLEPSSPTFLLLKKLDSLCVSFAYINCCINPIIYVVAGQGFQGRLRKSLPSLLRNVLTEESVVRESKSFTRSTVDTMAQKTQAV

T2: human C5aR (CD88) (human, UniProt P21730 1-350)
T2 sequence (looked up): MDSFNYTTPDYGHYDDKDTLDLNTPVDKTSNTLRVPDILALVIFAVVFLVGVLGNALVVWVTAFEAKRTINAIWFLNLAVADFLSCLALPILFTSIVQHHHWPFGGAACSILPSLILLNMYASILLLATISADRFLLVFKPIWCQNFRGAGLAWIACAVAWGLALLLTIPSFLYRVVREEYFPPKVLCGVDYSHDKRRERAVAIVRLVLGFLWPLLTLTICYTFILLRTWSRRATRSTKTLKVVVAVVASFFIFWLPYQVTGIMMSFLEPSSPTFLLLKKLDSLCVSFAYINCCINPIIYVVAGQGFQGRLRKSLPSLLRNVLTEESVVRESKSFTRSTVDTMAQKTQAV


How the values were obtained:
human C5aR (CD88) [1] = biological target: T1, human C5aR (CD88); test: Determination of the IC50 value in an enzyme release assay (functional assay, antagonistic activity); format: cell-based
human C5aR (CD88) [2] = biological target: T1, human C5aR (CD88); test: Determination of EC50 values in an enzyme release assay (agonistic activity, no C5a added); format: cell-based; details: cellular assay, up to a concentration of at least 1430 nM
Method: The determination of the EC50 value was performed in a way similar to the procedure described in example 11, with the only exception that 30 μl of the compound to be tested were mixed with 75 μl of the cell suspension described in example 11. There was no preincubation or addition of C5a for stimulation of the enzyme release.

[3] = Solubility determination for selected C5aR-antagonists; format: physicochemical; details: for Solubility in 20 mM HEPES pH 7.4: 20 mM HEPES pH 7.4, 24 h at RT
Method: Solubility of compounds was determined by the following procedure: 20 μl of a 10 mM stock solution (in DMSO) of the compound were diluted in 980 μl of the solvent to be tested. After incubation for 24 h at RT under shaking the samples are centrifuged at 11.000 rpm in an Eppendorf centrifuge. The supematant is determined by photometry. […] Therefor the compound was suspended at 10 mg/ml in the solvent systems of choice. The undissolved part was removed by centrifugation after 24 h. The UV-absorption of the supernatant was measured and compared to a respective reference value 60% MeOH).

human C5aR (CD88) [4] = biological target: T2, human C5aR (CD88); test: cell-based or functional assay
human C5aR (CD88) [5] = biological target: T2, human C5aR (CD88); test: cell-based or functional assay; remark: listed apart in the source
human C5aR (CD88) [6] = biological target: T2, human C5aR (CD88); test: cell-based or functional assay; remark: listed apart in the source
[7] = noteworthy = IC50 of less than 200 nM in the functional assay

| Molecule | IC50 activity group, enzyme release assay (human C5aR (CD88) [5]) [nM] | EC50, agonistic activity, enzyme release assay (human C5aR (CD88) [6]) [nM] | also measured |
| --- | --- | --- | --- |
| CC(=O)N[C@@H](Cc1ccccc1)C(=O)N[C@H]1CCCNC(=O)[C@H](Cc2ccccc2)NC(=O)[C@H](Cc2c[nH]c3ccccc23)NC(=O)[C@@H](CC2CCCCC2)NC(=O)[C@@H]2C[C@@H](O)CN2C1=O [Compound 2, Ac-Phe-[Orn-Hyp-cha-Trp-Phe]] (Ac-F[Orn][Hyp][dCha]WF; lactam 2-C) |  |  | inhibitory activity (in words) (human C5aR (CD88) [1]): noteworthy inhibitory activity; agonistic activity (in words) (human C5aR (CD88) [2]): pure antagonists; Solubility in 20 mM HEPES pH 7.4 [3]: 13 % of 200 μM; solubility ([3]; aqueous HEPES buffer (pH 7.4)): 13% |
| CCCC[C@@H]1NC(=O)[C@H](Cc2c[nH]c3ccccc23)NC(=O)[C@@H](CC2CCCCC2)NC(=O)[C@@H]2CCCN2C(=O)[C@@H](NC(=O)[C@@H](N)Cc2ccccc2)CCCNC1=O [Compound 42, H-Phe-[Orn-Pro-cha-Trp-Nle]] (H-F[Orn]P[dCha]W[Nle]; lactam 2-C) |  |  | inhibitory activity (in words) (human C5aR (CD88) [1]; [7]): noteworthy inhibitory activity; agonistic activity (in words) (human C5aR (CD88) [2]): pure antagonists; Solubility in 20 mM HEPES pH 7.4 [3]: 45 % of 200 μM |
| CCCC[C@@H]1NC(=O)[C@H](Cc2c[nH]c3ccccc23)NC(=O)[C@@H](CC2CCCCC2)NC(=O)[C@@H]2CCCN2C(=O)[C@@H](NC(=O)[C@H](Cc2ccccc2)NC(=O)[C@H](CCCCN)NC(C)=O)CCCNC1=O [Compound 43, Ac-Lys-Phe-[Orn-Pro-cha-Trp-Nle]] (Ac-KF[Orn]P[dCha]W[Nle]; lactam 3-C) |  |  | inhibitory activity (in words) (human C5aR (CD88) [1]; [7]): noteworthy inhibitory activity; agonistic activity (in words) (human C5aR (CD88) [2]): pure antagonists; Solubility in 20 mM HEPES pH 7.4 [3]: 93 % of 200 μM |
| Ac-A[Orn]P[dCha]WR (lactam 2-C; SMILES CC(=O)N[C@@H](C)C(=O)N[C@H]1CCCNC(=O)[C@H](CCCNC(=N)N)NC(=O)[C@H](Cc2c[nH]c3ccccc23)NC(=O)[C@@H](CC2CCCCC2)NC(=O)[C@@H]2CCCN2C1=O) [Ac-Ala-[Orn-Pro-cha-Trp-Arg]] | > 2000 |  | IC50, functional assay (human C5aR (CD88) [4]): > 30000 nM |
| Ac-KF[Orn]P[dCha]W[Nle] (lactam 3-C; SMILES CCCC[C@@H]1NC(=O)[C@H](Cc2c[nH]c3ccccc23)NC(=O)[C@@H](CC2CCCCC2)NC(=O)[C@@H]2CCCN2C(=O)[C@@H](NC(=O)[C@H](Cc2ccccc2)NC(=O)[C@H](CCCCN)NC(C)=O)CCCNC1=O) [Ac-Lys-Phe-[Orn-Pro-cha-Trp-Nle]] | ≤ 50 | > 1430 |  |
| {Ph‑CH2‑CH2‑CO}-[Orn]P[dCha]W[Nle] (lactam 1-C) [Ph-CH2-CH2-CO-[Orn-Pro-cha-Trp-Nle]] |  | > 1430 |  |
| Ac-F[Orn]P[dCha]W[AllylGly] (lactam (positions not given here); not fully specified (bridges); printed as Ac-Phe-[Orn-Pro-cha-Trp-Eaf]) [Ac-Phe-[Orn-Pro-cha-Trp-Eaf]] | ≤ 10 | > 1430 |  |
| Ac-F[Orn]P[dCha]WA (lactam (positions not given here); not fully specified (bridges); printed as Ac-Phe-[Orn-Pro-cha-Trp-Ala]) [Ac-Phe-[Orn-Pro-cha-Trp-Ala]] | > 2000 |  | IC50, functional assay (human C5aR (CD88) [4]): 5600 nM |
| {HOCH2(CHOH)4‑C═N‑O‑CH2‑CO}-F[Orn]P[dCha]W[Nle] (lactam 2-C) [HOCH2(CHOH)4-C═N-O-CH2-CO-Phe-[Orn-Pro-cha-Trp-Nle]] | ≤ 200 | > 1430 |  |
| Ac-F[Orn]P[dCha]W[Phe(4-NH2)] (lactam (positions not given here); not fully specified (bridges); printed as Ac-Phe-[Orn-Pro-cha-Trp-Paf]) [Ac-Phe-[Orn-Pro-cha-Trp-Paf]] | ≤ 50 |  | IC50, enzyme release assay (human C5aR (CD88) [4]): 30 nM |
| Ac-F[Orn]P[dCha]AR (lactam (positions not given here); not fully specified (bridges); printed as Ac-Phe-[Orn-Pro-cha-Ala-Arg]) [Ac-Phe-[Orn-Pro-cha-Ala-Arg]] | > 2000 |  | IC50, functional assay (human C5aR (CD88) [4]): > 30000 nM |
| H-F[Orn]P[dCha]W[Nle] (lactam 2-C; not fully specified; printed as H-Phe-[Orn-Pro-cha-Trp-Nle]) [H-Phe-[Orn-Pro-cha-Trp-Nle]] |  | > 1430 |  |
| Ac-F[Orn]P[dCha]W[Nle] (lactam (positions not given here); not fully specified (bridges); printed as Ac-Phe-[Orn-Pro-cha-Trp-Nle]) [Ac-Phe-[Orn-Pro-cha-Trp-Nle]] | ≤ 50 | > 1430 |  |
| Ac-F[Orn]P[dCha]WF (lactam (positions not given here); not fully specified (bridges); printed as Ac-Phe-[Orn-Pro-cha-Trp-Phe]) [Ac-Phe-[Orn-Pro-cha-Trp-Phe]] | ≤ 50 | > 1430 | IC50, enzyme release assay (human C5aR (CD88) [4]): 23 nM |
| Ac-F[Orn]P[dA]WR (lactam (positions not given here); not fully specified (bridges); printed as Ac-Phe-[Orn-Pro-ala-Trp-Arg]) [Ac-Phe-[Orn-Pro-ala-Trp-Arg]] | > 2000 |  | IC50, functional assay (human C5aR (CD88) [4]): > 30000 nM |
| Ac-F[Orn]P[dCha]WK (lactam (positions not given here); not fully specified (bridges); printed as Ac-Phe-[Orn-Pro-cha-Trp-Lys]) [Ac-Phe-[Orn-Pro-cha-Trp-Lys]] | > 2000 |  | IC50, enzyme release assay (human C5aR (CD88) [4]): 8700 nM |
| Ac-FKA[Cha]AL[dA]Y-OH (SMILES CC(=O)N[C@@H](Cc1ccccc1)C(=O)N[C@@H](CCCCN)C(=O)N[C@@H](C)C(=O)N[C@@H](CC1CCCCC1)C(=O)N[C@@H](C)C(=O)N[C@@H](CC(C)C)C(=O)N[C@H](C)C(=O)N[C@@H](Cc1ccc(O)cc1)C(=O)O) [Ac-Phe-Lys-Ala-Cha-Ala-Leu-ala-Tyr-OH] | ≤ 2000 |  | IC50, functional assay as used in this application (human C5aR (CD88) [4]): 1300 nM |
